Test results published in the supplement of paper PMC10567573.

B1: ZER1 (parent)
chain: KEMARKVIEHCSNFKEENMDTSR

Variants of: B1
Experiment: protein stability index of a GFP-peptide fusion (GPS, HEK-293T) (PSI 1-6); higher = more stable
Settings: c terminus: native
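Also: lentivirally expressed fusions sorted by FACS into six bins by GFP to DsRed ratio, PSI derived from sequencing read proportions per bin multiplied by bin number.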

Variant	protein stability index
KEMARKVIEHCSNFVEENMDTSR [K15V]	3.9
KEMARKVIEHCSNFWEENMDTSR [K15W]	2.85
KEMARKVIEHCSNFYEENMDTSR [K15Y]	3.27
KEMARKVIEHCSNFKAENMDTSR [E16A]	2.9
KEMARKVIEHCSNFKCENMDTSR [E16C]	3.17
KEMARKVIEHCSNFKDENMDTSR [E16D]	3.07
KEMARKVIEHCSNFKFENMDTSR [E16F]	2.46
KEMARKVIEHCSNFKGENMDTSR [E16G]	3.83
KEMARKVIEHCSNFKHENMDTSR [E16H]	2.79
KEMARKVIEHCSNFKIENMDTSR [E16I]	2.45
KEMARKVIEHCSNFKKENMDTSR [E16K]	3.85
KEMARKVIEHCSNFKLENMDTSR [E16L]	2.52
KEMARKVIEHCSNFKMENMDTSR [E16M]	2.68
KEMARKVIEHCSNFKNENMDTSR [E16N]	3.19
KEMARKVIEHCSNFKPENMDTSR [E16P]	3.31
KEMARKVIEHCSNFKQENMDTSR [E16Q]	3.14
KEMARKVIEHCSNFKRENMDTSR [E16R]	2.98
KEMARKVIEHCSNFKSENMDTSR [E16S]	4.19
KEMARKVIEHCSNFKTENMDTSR [E16T]	3.1
KEMARKVIEHCSNFKVENMDTSR [E16V]	3.43
KEMARKVIEHCSNFKWENMDTSR [E16W]	2.16
KEMARKVIEHCSNFKYENMDTSR [E16Y]	2.37
KEMARKVIEHCSNFKEANMDTSR [E17A]	2.98
KEMARKVIEHCSNFKECNMDTSR [E17C]	2.68
KEMARKVIEHCSNFKEDNMDTSR [E17D]	3.63

Variant	protein stability index
KEMARKVIEHCSNFKEFNMDTSR [E17F]	2.79
KEMARKVIEHCSNFKEGNMDTSR [E17G]	3.4
KEMARKVIEHCSNFKEHNMDTSR [E17H]	2.83
KEMARKVIEHCSNFKEINMDTSR [E17I]	3.15
KEMARKVIEHCSNFKEKNMDTSR [E17K]	2.84
KEMARKVIEHCSNFKELNMDTSR [E17L]	2.35
KEMARKVIEHCSNFKEMNMDTSR [E17M]	3.51
KEMARKVIEHCSNFKENNMDTSR [E17N]	3.55
KEMARKVIEHCSNFKEPNMDTSR [E17P]	2.93
KEMARKVIEHCSNFKEQNMDTSR [E17Q]	3.19
KEMARKVIEHCSNFKERNMDTSR [E17R]	2.21
KEMARKVIEHCSNFKESNMDTSR [E17S]	3.29
KEMARKVIEHCSNFKETNMDTSR [E17T]	3.45
KEMARKVIEHCSNFKEVNMDTSR [E17V]	2.74
KEMARKVIEHCSNFKEWNMDTSR [E17W]	2.2
KEMARKVIEHCSNFKEYNMDTSR [E17Y]	2.41
KEMARKVIEHCSNFKEEAMDTSR [N18A]	3.34
KEMARKVIEHCSNFKEECMDTSR [N18C]	3.3
KEMARKVIEHCSNFKEEDMDTSR [N18D]	3.52
KEMARKVIEHCSNFKEEEMDTSR [N18E]	4.22
KEMARKVIEHCSNFKEEFMDTSR [N18F]	3.07
KEMARKVIEHCSNFKEEGMDTSR [N18G]	4.02
KEMARKVIEHCSNFKEEHMDTSR [N18H]	3.47
KEMARKVIEHCSNFKEEIMDTSR [N18I]	3.31
KEMARKVIEHCSNFKEEKMDTSR [N18K]	2.99

Variant	protein stability index
KEMARKVIEHCSNFKEELMDTSR [N18L]	2.91
KEMARKVIEHCSNFKEEMMDTSR [N18M]	3.54
KEMARKVIEHCSNFKEEPMDTSR [N18P]	3.9
KEMARKVIEHCSNFKEEQMDTSR [N18Q]	3.6
KEMARKVIEHCSNFKEERMDTSR [N18R]	2
KEMARKVIEHCSNFKEESMDTSR [N18S]	3.7
KEMARKVIEHCSNFKEETMDTSR [N18T]	3.45
KEMARKVIEHCSNFKEEVMDTSR [N18V]	3.46
KEMARKVIEHCSNFKEEWMDTSR [N18W]	3.6
KEMARKVIEHCSNFKEEYMDTSR [N18Y]	3.08
KEMARKVIEHCSNFKEENADTSR [M19A]	3.68
KEMARKVIEHCSNFKEENCDTSR [M19C]	3.51
KEMARKVIEHCSNFKEENDDTSR [M19D]	4.46
KEMARKVIEHCSNFKEENEDTSR [M19E]	4.15
KEMARKVIEHCSNFKEENFDTSR [M19F]	3.94
KEMARKVIEHCSNFKEENGDTSR [M19G]	3.37
KEMARKVIEHCSNFKEENHDTSR [M19H]	3.77
KEMARKVIEHCSNFKEENIDTSR [M19I]	4.32
KEMARKVIEHCSNFKEENKDTSR [M19K]	2.81
KEMARKVIEHCSNFKEENLDTSR [M19L]	3.47
KEMARKVIEHCSNFKEENNDTSR [M19N]	4.29
KEMARKVIEHCSNFKEENPDTSR [M19P]	3.58
KEMARKVIEHCSNFKEENQDTSR [M19Q]	3.87
KEMARKVIEHCSNFKEENRDTSR [M19R]	3.62
KEMARKVIEHCSNFKEENSDTSR [M19S]	3.63

Variant	protein stability index
KEMARKVIEHCSNFKEENTDTSR [M19T]	3.92
KEMARKVIEHCSNFKEENVDTSR [M19V]	3.77
KEMARKVIEHCSNFKEENWDTSR [M19W]	3.64
KEMARKVIEHCSNFKEENYDTSR [M19Y]	3.71
KEMARKVIEHCSNFKEENMATSR [D20A]	1.63
KEMARKVIEHCSNFKEENMCTSR [D20C]	2.08
KEMARKVIEHCSNFKEENMETSR [D20E]	2.51
KEMARKVIEHCSNFKEENMFTSR [D20F]	2.98
KEMARKVIEHCSNFKEENMGTSR [D20G]	2.68
KEMARKVIEHCSNFKEENMHTSR [D20H]	2.96
KEMARKVIEHCSNFKEENMITSR [D20I]	1.52
KEMARKVIEHCSNFKEENMKTSR [D20K]	2.29
KEMARKVIEHCSNFKEENMLTSR [D20L]	1.87
KEMARKVIEHCSNFKEENMMTSR [D20M]	1.91
KEMARKVIEHCSNFKEENMNTSR [D20N]	4.59
KEMARKVIEHCSNFKEENMPTSR [D20P]	2.46
KEMARKVIEHCSNFKEENMQTSR [D20Q]	2.23
KEMARKVIEHCSNFKEENMRTSR [D20R]	2.13
KEMARKVIEHCSNFKEENMSTSR [D20S]	2.46
KEMARKVIEHCSNFKEENMTTSR [D20T]	2.99
KEMARKVIEHCSNFKEENMVTSR [D20V]	1.51
KEMARKVIEHCSNFKEENMWTSR [D20W]	2.5
